Test results as given in the supplement of paper PMC5998384.

Experiments:
HeLa Kyoto [1] = experiment: thermal stability score vs G1/S (z-score of summed log2 fold changes over temperatures); higher = more thermally stable than in G1/S
HeLa Kyoto [2] = experiment: melting temperature (median over replicates), in situ; higher = more thermally stable
HeLa Kyoto [3] = experiment: solubility change mitosis vs G1/S (difference of NP-40 vs SDS log2 ratios) (log2 ratio difference); higher = more soluble in mitosis
HeLa Kyoto [4] = experiment: solubility in G1/S (NP-40 vs SDS abundance) (log2 ratio); higher = more soluble; conditions: cell cycle stage: G1/S
[5] = cell cycle stage: early G1 (4.5 h after nocodazole release)
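For melting temperature (median over replicates), in situ in this document: HeLa Kyoto cells synchronized by double thymidine or nocodazole block, proteins quantified by TMT10plex mass spectrometry, three independent biological replicates.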
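For solubility change mitosis vs G1/S (difference of NP-40 vs SDS log2 ratios) in this document: synchronized HeLa Kyoto cells (double thymidine block for G1/S, nocodazole release for mitosis), protein amounts in NP-40 versus SDS lysates quantified by mass spectrometry, three biological replicates.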
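For solubility in G1/S (NP-40 vs SDS abundance) in this document: HeLa Kyoto cells arrested at G1/S by double thymidine block, proteins quantified by TMT10plex mass spectrometry in mild NP-40 versus SDS extracts, three biological replicates.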
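For thermal stability score vs G1/S (z-score of summed log2 fold changes over temperatures) in this document: synchronized HeLa Kyoto cells, proteins quantified by TMT10plex mass spectrometry, three biological replicates, mitosis taken 0.5 h after nocodazole release, G1/S directly after double thymidine block.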

Sequence of MAP7D1 (chain, as listed by the source): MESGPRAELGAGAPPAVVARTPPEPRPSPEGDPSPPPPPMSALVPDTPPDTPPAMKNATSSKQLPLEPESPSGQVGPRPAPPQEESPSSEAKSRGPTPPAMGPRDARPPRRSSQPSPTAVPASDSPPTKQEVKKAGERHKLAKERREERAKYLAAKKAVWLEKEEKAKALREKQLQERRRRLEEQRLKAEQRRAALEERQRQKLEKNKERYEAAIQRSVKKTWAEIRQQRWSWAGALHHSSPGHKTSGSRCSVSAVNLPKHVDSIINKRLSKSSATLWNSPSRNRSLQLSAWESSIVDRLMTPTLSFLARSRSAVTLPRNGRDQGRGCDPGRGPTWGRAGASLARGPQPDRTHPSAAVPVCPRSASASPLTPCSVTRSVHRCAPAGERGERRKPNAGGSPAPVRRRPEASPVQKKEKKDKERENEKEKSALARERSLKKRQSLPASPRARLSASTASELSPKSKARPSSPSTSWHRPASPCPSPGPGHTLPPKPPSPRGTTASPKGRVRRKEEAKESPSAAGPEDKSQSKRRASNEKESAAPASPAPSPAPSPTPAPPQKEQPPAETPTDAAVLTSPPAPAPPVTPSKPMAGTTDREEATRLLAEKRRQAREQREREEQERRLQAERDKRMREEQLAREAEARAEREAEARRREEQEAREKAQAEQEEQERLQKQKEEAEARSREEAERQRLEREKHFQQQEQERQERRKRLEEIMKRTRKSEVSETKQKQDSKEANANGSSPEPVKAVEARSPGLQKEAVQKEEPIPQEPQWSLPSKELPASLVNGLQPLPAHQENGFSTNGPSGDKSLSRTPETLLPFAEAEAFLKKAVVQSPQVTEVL

Substance | thermal stability score (HeLa Kyoto [1]; [5]) | thermal stability score (HeLa Kyoto [1]; cell cycle stage: mitosis) | melting temperature (HeLa Kyoto [2]; cell cycle stage: G1/S) | melting temperature (HeLa Kyoto [2]; cell cycle stage: mitosis) | solubility change mitosis (log2) (HeLa Kyoto [3]) | solubility in G1/S (log2) (HeLa Kyoto [4])
MAMVTGGWGGPGGDTNGVDKAGGYPRAAEDDSASPPGAASDAEPGDEERPGLQVDCVVCGDKSSGKHYGVFTCEGCKSFFKRSIRRNLSYTCRSNRDCQIDQHHRNQCQYCRLKKCFRVGMRKEAVQRGRIPHSLPGAVAASSGSPPGSALAAVASGGDLFPGQPVSELIAQLLRAEPYPAAAGRFGAGGGAAGAVLGIDNVCELAARLLFSTVEWARHAPFFPELPVADQVALLRLSWSELFVLNAAQAALPLHTAPLLAAAGLHAAPMAAERAVAFMDQVRAFQEQVDKLGRLQVDSAEYGCLKAIALFTPDACGLSDPAHVESLQEKAQVALTEYVRAQYPSQPQRFGRLLLRLPALRAVPASLISQLFFMRLVGKTPIETLIRDMLLSGSTFNWPYGSGQ [NR2F6] | 0.278 | 0.498 | 53.1 °C | 50.3 °C | -0.047 | 0.0616
MANMQGLVERLERAVSRLESLSAESHRPPGNCGEVNGVIAGVAPSVEAFDKLMDSMVAEFLKNSRILAGDVETHAEMVHSAFQAQRAFLLMASQYQQPHENDVAALLKPISEKIQEIQTFRERNRGSNMFNHLSAVSESIPALGWIAVSPKPGPYVKEMNDAATFYTNRVLKDYKHSDLRHVDWVKSYLNIWSELQAYIKEHHTTGLTWSKTGPVASTVSAFSVLSSGPGLPPPPPPLPPPGPPPLFENEGKKEESSPSRSALFAQLNQGEAITKGLRHVTDDQKTYKNPSLRAQGGQTQSPTKSHTPSPTSPKSYPSQKHAPVLELEGKKWRVEYQEDRNDLVISETELKQVAYIFKCEKSTIQIKGKVNSIIIDNCKKLGLVFDNVVGIVEVINSQDIQIQVMGRVPTISINKTEGCHIYLSEDALDCEIVSAKSSEMNILIPQDGDYREFPIPEQFKTAWDGSKLITEPAEIMA [CAP2] | -1.54 | -2.12 | 51.3 °C | 50.3 °C | -0.179 | 0.136
MANNSPALTGNSQPQHQAAAAAAQQQQQCGGGGATKPAVSGKQGNVLPLWGNEKTMNLNPMILTNILSSPYFKVQLYELKTYHEVVDEIYFKVTHVEPWEKGSRKTAGQTGMCGGVRGVGTGGIVSTAFCLLYKLFTLKLTRKQVMGLITHTDSPYIRALGFMYIRYTQPPTDLWDWFESFLDDEEDLDVKAGGGCVMTIGEMLRSFLTKLEWFSTLFPRIPVPVQKNIDQQIKTRPRKIKKDGKEGAEEIDRHVERRRSRSPRRSLSPRRSPRRSRSRSHHREGHGSSSFDRELEREKERQRLEREAKEREKERRRSRSIDRGLERRRSRSRERHRSRSRSRDRKGDRRDRDREREKENERGRRRDRDYDKERGNEREKERERSRERSKEQRSRGEVEEKKHKEDKDDRRHRDDKRDSKKEKKHSRSRSRERKHRSRSRSRNAGKRSRSRSKEKSSKHKNESKEKSNKRSRSGSQGRTDSVEKSKKREHSPSKEKSRKRSRSKERSHKRDHSDSKDQSDKHDRRRSQSIEQESQEKQHKNKDETV [PRPF38B] | 0.848 | 1.5 | 50 °C | 50.6 °C | 0.407 | -0.989
MANPKEKTAMCLVNELARFNRVQPQYKLLNERGPAHSKMFSVQLSLGEQTWESEGSSIKKAQQAVANKALTESTLPKPVQKPPKSNVNNNPGSITPTVELNGLAMKRGEPAIYRPLDPKPFPNYRANYNFRGMYNQRYHCPVPKIFYVQLTVGNNEFFGEGKTRQAARHNAAMKALQALQNEPIPERSPQNGESGKDVDDDKDANKSEISLVFEIALKRNMPVSFEVIKESGPPHMKSFVTRVSVGEFSAEGEGNSKKLSKKRAATTVLQELKKLPPLPVVEKPKLFFKKRPKTIVKAGPEYGQGMNPISRLAQIQQAKKEKEPDYVLLSERGMPRRREFVMQVKVGNEVATGTGPNKKIAKKNAAEAMLLQLGYKASTNLQDQLEKTGENKGWSGPKPGFPEPTNNTPKGILHLSPDVYQEMEASRHKVISGTTLGYLSPKDMNQPSSSFFSISPTSNSSATIARELLMNGTSSTAEAIGLKGSSPTPPCSPVQPSKQLEYLARIQGFQAALSALKQFSEQGLDPIDGAMNIEKGSLEKQAKHLREKADNNQAPPGSIAQDCKKSNSAV [STAU2] | 0.426 | 1.69 | 49.1 °C | 50.3 °C | 0.169 | -0.227
MANRGPAYGLSREVQQKIEKQYDADLEQILIQWITTQCRKDVGRPQPGRENFQNWLKDGTVLCELINALYPEGQAPVKKIQASTMAFKQMEQISQFLQAAERYGINTTDIFQTVDLWEGKNMACVQRTLMNLGGLAVARDDGLFSGDPNWFPKKSKENPRNFSDNQLQEGKNVIGLQMGTNRGASQAGMTGYGMPRQIL [TAGLN2] | -1.52 | -1.77 | 50.9 °C | 51.7 °C | 0.461 | 0.348
MANRTVKDAHSIHGTNPQYLVEKIIRTRIYESKYWKEECFGLTAELVVDKAMELRFVGGVYGGNIKPTPFLCLTLKMLQIQPEKDIIVEFIKNEDFKYVRMLGALYMRLTGTAIDCYKYLEPLYNDYRKIKSQNRNGEFELMHVDEFIDELLHSERVCDIILPRLQKRYVLEEAEQLEPRVSALEEDMDDVESSEEEEEEDEKLERVPSPDHRRRSYRDLDKPRRSPTLRYRRSRSRSPRRRSRSPKRRSPSPRRERHRSKSPRRHRSRSRDRRHRSRSKSPGHHRSHRHRSHSKSPERSKKSHKKSRRGNE [PRPF38A] | -0.0926 | 1.13 | 49 °C | 48.6 °C | 0.372 | -1.32
MANVPWAEVCEKFQAALALSRVELHKNPEKEPYKSKYSARALLEEVKALLGPAPEDEDERPEAEDGPGAGDHALGLPAEVVEPEGPVAQRAVRLAVIEFHLGVNHIDTEELSAGEEHLVKCLRLLRRYRLSHDCISLCIQAQNNLGILWSEREEIETAQAYLESSEALYNQYMKEVGSPPLDPTERFLPEEEKLTEQERSKRFEKVYTHNLYYLAQVYQHLEMFEKAAHYCHSTLKRQLEHNAYHPIEWAINAATLSQFYINKLCFMEARHCLSAANVIFGQTGKISATEDTPEAEGEVPELYHQRKGEIARCWIKYCLTLMQNAQLSMQDNIGELDLDKQSELRALRKKELDEEESIRKKAVQFGTGELCDAISAVEEKVSYLRPLDFEEARELFLLGQHYVFEAKEFFQIDGYVTDHIEVVQDHSALFKVLAFFETDMERRCKMHKRRIAMLEPLTVDLNPQYYLLVNRQIQFEIAHAYYDMMDLKVAIADRLRDPDSHIVKKINNLNKSALKYYQLFLDSLRDPNKVFPEHIGEDVLRPAMLAKFRVARLYGKIITADPKKELENLATSLEHYKFIVDYCEKHPEAAQEIEVELELSKEMVSLLPTKMERFRTKMALT [KIF1BP] | 0.769 | 2.03 | 49 °C | 49 °C | -0.161 | 0.141
MAP7D1 | -1.09 | -4.66 | 52.8 °C | 51.2 °C | 0.536 | 0.337
MAPARCFSARLRTVFQGVGHWALSTWAGLKPSRLLPQRASPRLLSVGRADLAKHQELPGKKLLSEKKLKRYFVDYRRVLVCGGNGGAGASCFHSEPRKEFGGPDGGDGGNGGHVILRVDQQVKSLSSVLSRYQGFSGEDGGSKNCFGRSGAVLYIRVPVGTLVKEGGRVVADLSCVGDEYIAALGGAGGKGNRFFLANNNRAPVTCTPGQPGQQRVLHLELKTVAHAGMVGFPNAGKSSLLRAISNARPAVASYPFTTLKPHVGIVHYEGHLQIAVADIPGIIRGAHQNRGLGSAFLRHIERCRFLLFVVDLSQPEPWTQVDDLKYELEMYEKGLSARPHAIVANKIDLPEAQANLSQLRDHLGQEVIVLSALTGENLEQLLLHLKVLYDAYAEAELGQGRQPLRW [MTG2] | -0.446 | 0.103 | 49.6 °C | 49.1 °C | 0.00581 | 0.239
MAPDPVAAETAAQGPTPRYFTWDEVAQRSGCEERWLVIDRKVYNISEFTRRHPGGSRVISHYAGQDATDPFVAFHINKGLVKKYMNSLLIGELSPEQPSFEPTKNKELTDEFRELRATVERMGLMKANHVFFLLYLLHILLLDGAAWLTLWVFGTSFLPFLLCAVLLSAVQAQAGWLQHDFGHLSVFSTSKWNHLLHHFVIGHLKGAPASWWNHMHFQHHAKPNCFRKDPDINMHPFFFALGKILSVELGKQKKKYMPYNHQHKYFFLIGPPALLPLYFQWYIFYFVIQRKKWVDLAWMITFYVRFFLTYVPLLGLKAFLGLFFIVRFLESNWFVWVTQMNHIPMHIDHDRNMDWVSTQLQATCNVHKSAFNDWFSGHLNFQIEHHLFPTMPRHNYHKVAPLVQSLCAKHGIEYQSKPLLSAFADIIHSLKESGQLWLDAYLHQ [FADS1] | -0.752 | -0.737 | 51.9 °C | 51.3 °C | -0.092 | -0.124
MAPHDPGSLTTLVPWAAALLLALGVERALALPEICTQCPGSVQNLSKVAFYCKTTRELMLHARCCLNQKGTILGLDLQNCSLEDPGPNFHQAHTTVIIDLQANPLKGDLANTFRGFTQLQTLILPQHVNCPGGINAWNTITSYIDNQICQGQKNLCNNTGDPEMCPENGSCVPDGPGLLQCVCADGFHGYKCMRQGSFSLLMFFGILGATTLSVSILLWATQRRKAKTS [ATRAID] | 0.782 | 0.854 | 53.9 °C | 54.8 °C | 0.252 | -0.19
MAPLGGAPRLVLLFSGKRKSGKDFVTEALQSRLGADVCAVLRLSGPLKEQYAQEHGLNFQRLLDTSTYKEAFRKDMIRWGEEKRQADPGFFCRKIVEGISQPIWLVSDTRRVSDIQWFREAYGAVTQTVRVVALEQSRQQRGWVFTPGVDDAESECGLDNFGDFDWVIENHGVEQRLEEQLENLIEFIRSRL [PMVK] | 1.41 | 1.71 | 46.6 °C | 47.8 °C | -0.0243 | -0.0155
MAPLLLQLAVLGAALAAAALVLISIVAFTTATKMPALHRHEEEKFFLNAKGQKETLPSIWDSPTKQLSVVVPSYNEEKRLPVMMDEALSYLEKRQKRDPAFTYEVIVVDDGSKDQTSKVAFKYCQKYGSDKVRVITLVKNRGKGGAIRMGIFSSRGEKILMADADGATKFPDVEKLEKGLNDLQPWPNQMAIACGSRAHLEKESIAQRSYFRTLLMYGFHFLVWFLCVKGIRDTQCGFKLFTREAASRTFSSLHVERWAFDVELLYIAQFFKIPIAEIAVNWTEIEGSKLVPFWSWLQMGKDLLFIRLRYLTGAWRLEQTRKMN [ALG5] | -0.322 | -1.32 | 53 °C | 53.8 °C | -0.147 | -0.514
MAPRRVRSFLRGLPALLLLLLFLGPWPAASHGGKYSREKNQPKPSPKRESGEEFRMEKLNQLWEKAQRLHLPPVRLAELHADLKIQERDELAWKKLKLDGLDEDGEKEARLIRNLNVILAKYGLDGKKDARQVTSNSLSGTQEDGLDDPRLEKLWHKAKTSGKFSGEELDKLWREFLHHKEKVHEYNVLLETLSRTEEIHENVISPSDLSDIKGSVLHSRHTELKEKLRSINQGLDRLRRVSHQGYSTEAEFEEPRVIDLWDLAQSANLTDKELEAFREELKHFEAKIEKHNHYQKQLEIAHEKLRHAESVGDGERVSRSREKHALLEGRTKELGYTVKKHLQDLSGRISRARHNEL [LRPAP1] | 2.72 | -0.375 | 55.3 °C | 54.1 °C | -0.0876 | 0.724
MAPSGLKAVVGEKILSGVIRSVKKDGEWKVLIMDHPSMRILSSCCKMSDILAEGITIVEDINKRREPIPSLEAIYLLSPTEKSVQALIKDFQGTPTFTYKAAHIFFTDTCPEPLFSELGRSRLAKVVKTLKEIHLAFLPYEAQVFSLDAPHSTYNLYCPFRAEERTRQLEVLAQQIATLCATLQEYPAIRYRKGPEDTAQLAHAVLAKLNAFKADTPSLGEGPEKTRSQLLIMDRAADPVSPLLHELTFQAMAYDLLDIEQDTYRYETTGLSEAREKAVLLDEDDDLWVELRHMHIADVSKKVTELLRTFCESKRLTTDKANIKDLSQILKKMPQYQKELNKYSTHLHLADDCMKHFKGSVEKLCSVEQDLAMGSDAEGEKIKDSMKLIVPVLLDAAVPAYDKIRVLLLYILLRNGVSEENLAKLIQHANVQAHSSLIRNLEQLGGTVTNPGGSGTSSRLEPRERMEPTYQLSRWTPVIKDVMEDAVEDRLDRNLWPFVSDPAPTASSQAAVSARFGHWHKNKAGIEARAGPRLIVYVMGGVAMSEMRAAYEVTRATEGKWEVLIGSSHILTPTRFLDDLKALDKKLEDIALP [STXBP2] | 0.25 | 1.22 | 49.3 °C | 49.2 °C | -0.19 | -0.0683
